T1: ヒトFas抗原 (ヒトリンパ球細胞株HPB−ALL細胞上) (human, UniProt P25445 26-335)
T1 sequence (looked up): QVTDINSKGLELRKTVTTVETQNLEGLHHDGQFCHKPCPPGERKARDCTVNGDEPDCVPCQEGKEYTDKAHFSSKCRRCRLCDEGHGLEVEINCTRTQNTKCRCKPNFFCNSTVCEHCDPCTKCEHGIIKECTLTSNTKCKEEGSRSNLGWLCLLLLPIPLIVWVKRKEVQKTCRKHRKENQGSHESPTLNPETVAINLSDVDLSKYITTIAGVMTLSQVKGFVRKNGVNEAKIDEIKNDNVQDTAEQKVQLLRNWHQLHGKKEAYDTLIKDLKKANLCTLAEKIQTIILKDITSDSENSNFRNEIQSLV


Target: T1, ヒトFas抗原 (ヒトリンパ球細胞株HPB−ALL細胞上)
Experiment: cell-based or functional assay

| Binder | ED 50 (細胞生存率が50%になるIgMの濃度; HPB-ALL 細胞, WST-1) [ng/mL] |
| --- | --- |
| 抗ヒトFasヒト化抗体 [B] (pHμM1-1 及び pHκKY2-58 でコ・トランスフェクションしたCOS-7細胞の発現産物; HμM鎖 + VL-KY鎖) (antibody) heavy: EVQLVQSGAEVKKPGASVKVSCKASGYTFTDYNMHWVKQAHGKSLEWMGYIYPYNGGTGYNQKFKSKATLTVDNSASTAYMELSSLRSEDTAVYYCARSYYAMDYWGQGTLVTVSSGSASAPTLFPLVSCENSPSDTSSVAVGCLAQDFLPDSITFSWKYKNNSDISSTRGFPSVLRGGKYAATSQVLLPSKDVMQGTDEHVVCKVQHPNGNKEKNVPLPVIAELPPKVSVFVPPRDGFFGNPRKSKLICQATGFSPRQIQVSWLREGKQVGSGVTTDQVQAEAKESGPTTYKVTSTLTIKESDWLSQSMFTCRVDHRGLTFQQNASSMCVPDQDTAIRVFAIPPSFASIFLTKSTKLTCLVTDLTTYDSVTISWTRQNGEAVKTHTNISESHPNATFSAVGEASICEDDWNSGERFTCTVTHTDLPSPLKQTISRPKGVALHRPDVYLLPPAREQLNLRESATITCLVTGFSPADVFVQWMQRGQPLSPEKYVTSAPMPEPQAPGRYFAHSILTVSEEEWNTGETYICVVAHEALPNRVTERTVDKSTGKPTLYNVSLVMSDTAGTCY light: DVVMTQSPLSLPVTLGQPASISCRSSKSLVHSNGNTYLHWYLQKPGQSPKLLIYKVSNRFSGVPDRFSGSGSGTDFTLKISRVEAEDVGVYYCSQSTHVPPAFGQGTKVEIKRTVAAPSVFIFPPSDEQLKSGTASVVCLLNNFYPREAKVQWKVDNALQSGNSQESVTEQDSKDSTYSLSSTLTLSKADYEKHKVYACEVTHQGLSSPVTKSFNRGEC | 1.1 |
| 抗ヒトFasヒト化抗体 [E] (pHμM1-1 及び pHκRF2-52; HμM鎖 + VL-RF鎖) (antibody, human IgM) heavy: EVQLVQSGAEVKKPGASVKVSCKASGYTFTDYNMHWVKQAHGKSLEWMGYIYPYNGGTGYNQKFKSKATLTVDNSASTAYMELSSLRSEDTAVYYCARSYYAMDYWGQGTLVTVSSGSASAPTLFPLVSCENSPSDTSSVAVGCLAQDFLPDSITFSWKYKNNSDISSTRGFPSVLRGGKYAATSQVLLPSKDVMQGTDEHVVCKVQHPNGNKEKNVPLPVIAELPPKVSVFVPPRDGFFGNPRKSKLICQATGFSPRQIQVSWLREGKQVGSGVTTDQVQAEAKESGPTTYKVTSTLTIKESDWLSQSMFTCRVDHRGLTFQQNASSMCVPDQDTAIRVFAIPPSFASIFLTKSTKLTCLVTDLTTYDSVTISWTRQNGEAVKTHTNISESHPNATFSAVGEASICEDDWNSGERFTCTVTHTDLPSPLKQTISRPKGVALHRPDVYLLPPAREQLNLRESATITCLVTGFSPADVFVQWMQRGQPLSPEKYVTSAPMPEPQAPGRYFAHSILTVSEEEWNTGETYICVVAHEALPNRVTERTVDKSTGKPTLYNVSLVMSDTAGTCY light: DVVMTQSPLSLPVTLGQPASISCRSSKSLVHSNGNTYLHWYLQKPGQSPRLLIYKVSNRFSGVPDRFSGSGSGTDFTLKISRVEAEDVGVYFCSQSTHVPPAFGQGTKVEIKRTVAAPSVFIFPPSDEQLKSGTASVVCLLNNFYPREAKVQWKVDNALQSGNSQESVTEQDSKDSTYSLSSTLTLSKADYEKHKVYACEVTHQGLSSPVTKSFNRGEC | 1.5 |
| 抗ヒトFasヒト化抗体 [C] (pHμM1-1 及び pHκKF2-19; HμM鎖 + VL-KF鎖) (antibody, human IgM) heavy: EVQLVQSGAEVKKPGASVKVSCKASGYTFTDYNMHWVKQAHGKSLEWMGYIYPYNGGTGYNQKFKSKATLTVDNSASTAYMELSSLRSEDTAVYYCARSYYAMDYWGQGTLVTVSSGSASAPTLFPLVSCENSPSDTSSVAVGCLAQDFLPDSITFSWKYKNNSDISSTRGFPSVLRGGKYAATSQVLLPSKDVMQGTDEHVVCKVQHPNGNKEKNVPLPVIAELPPKVSVFVPPRDGFFGNPRKSKLICQATGFSPRQIQVSWLREGKQVGSGVTTDQVQAEAKESGPTTYKVTSTLTIKESDWLSQSMFTCRVDHRGLTFQQNASSMCVPDQDTAIRVFAIPPSFASIFLTKSTKLTCLVTDLTTYDSVTISWTRQNGEAVKTHTNISESHPNATFSAVGEASICEDDWNSGERFTCTVTHTDLPSPLKQTISRPKGVALHRPDVYLLPPAREQLNLRESATITCLVTGFSPADVFVQWMQRGQPLSPEKYVTSAPMPEPQAPGRYFAHSILTVSEEEWNTGETYICVVAHEALPNRVTERTVDKSTGKPTLYNVSLVMSDTAGTCY light: DVVMTQSPLSLPVTLGQPASISCRSSKSLVHSNGNTYLHWYLQKPGQSPKLLIYKVSNRFSGVPDRFSGSGSGTDFTLKISRVEAEDVGVYFCSQSTHVPPAFGQGTKVEIKRTVAAPSVFIFPPSDEQLKSGTASVVCLLNNFYPREAKVQWKVDNALQSGNSQESVTEQDSKDSTYSLSSTLTLSKADYEKHKVYACEVTHQGLSSPVTKSFNRGEC | 1 |
| 抗ヒトFasヒト化抗体 [D] (pHμM1-1 及び pHκRY2-10; HμM鎖 + VL-RY鎖) (antibody, human IgM) heavy: EVQLVQSGAEVKKPGASVKVSCKASGYTFTDYNMHWVKQAHGKSLEWMGYIYPYNGGTGYNQKFKSKATLTVDNSASTAYMELSSLRSEDTAVYYCARSYYAMDYWGQGTLVTVSSGSASAPTLFPLVSCENSPSDTSSVAVGCLAQDFLPDSITFSWKYKNNSDISSTRGFPSVLRGGKYAATSQVLLPSKDVMQGTDEHVVCKVQHPNGNKEKNVPLPVIAELPPKVSVFVPPRDGFFGNPRKSKLICQATGFSPRQIQVSWLREGKQVGSGVTTDQVQAEAKESGPTTYKVTSTLTIKESDWLSQSMFTCRVDHRGLTFQQNASSMCVPDQDTAIRVFAIPPSFASIFLTKSTKLTCLVTDLTTYDSVTISWTRQNGEAVKTHTNISESHPNATFSAVGEASICEDDWNSGERFTCTVTHTDLPSPLKQTISRPKGVALHRPDVYLLPPAREQLNLRESATITCLVTGFSPADVFVQWMQRGQPLSPEKYVTSAPMPEPQAPGRYFAHSILTVSEEEWNTGETYICVVAHEALPNRVTERTVDKSTGKPTLYNVSLVMSDTAGTCY light: DVVMTQSPLSLPVTLGQPASISCRSSKSLVHSNGNTYLHWYLQKPGQSPRLLIYKVSNRFSGVPDRFSGSGSGTDFTLKISRVEAEDVGVYYCSQSTHVPPAFGQGTKVEIKRTVAAPSVFIFPPSDEQLKSGTASVVCLLNNFYPREAKVQWKVDNALQSGNSQESVTEQDSKDSTYSLSSTLTLSKADYEKHKVYACEVTHQGLSSPVTKSFNRGEC | 1.7 |

Second part, the binder after the results:

| ED 50 (細胞生存率が50%になるIgMの濃度; HPB-ALL 細胞, WST-1) [ng/mL] | Binder |
| --- | --- |
| 2.4 | 抗ヒトFasヒト化抗体 [G] (pHμH5-1 及び pHκKF2-19; HμH鎖 + VL-KF鎖) (antibody, human IgM) heavy: EVQLVQSGAEVKKPGASVKVSCKASGYTFTDYNMHWVRQAPGQGLEWMGYIYPYNGGTGYNQKFKSKATLTVDNSASTAYMELSSLRSEDTAVYYCARSYYAMDYWGQGTLVTVSSGSASAPTLFPLVSCENSPSDTSSVAVGCLAQDFLPDSITFSWKYKNNSDISSTRGFPSVLRGGKYAATSQVLLPSKDVMQGTDEHVVCKVQHPNGNKEKNVPLPVIAELPPKVSVFVPPRDGFFGNPRKSKLICQATGFSPRQIQVSWLREGKQVGSGVTTDQVQAEAKESGPTTYKVTSTLTIKESDWLSQSMFTCRVDHRGLTFQQNASSMCVPDQDTAIRVFAIPPSFASIFLTKSTKLTCLVTDLTTYDSVTISWTRQNGEAVKTHTNISESHPNATFSAVGEASICEDDWNSGERFTCTVTHTDLPSPLKQTISRPKGVALHRPDVYLLPPAREQLNLRESATITCLVTGFSPADVFVQWMQRGQPLSPEKYVTSAPMPEPQAPGRYFAHSILTVSEEEWNTGETYICVVAHEALPNRVTERTVDKSTGKPTLYNVSLVMSDTAGTCY light: DVVMTQSPLSLPVTLGQPASISCRSSKSLVHSNGNTYLHWYLQKPGQSPKLLIYKVSNRFSGVPDRFSGSGSGTDFTLKISRVEAEDVGVYFCSQSTHVPPAFGQGTKVEIKRTVAAPSVFIFPPSDEQLKSGTASVVCLLNNFYPREAKVQWKVDNALQSGNSQESVTEQDSKDSTYSLSSTLTLSKADYEKHKVYACEVTHQGLSSPVTKSFNRGEC |
| 3.4 | 抗ヒトFasヒト化抗体 [I] (pHμH5-1 及び pHκRF2-52; HμH鎖 + VL-RF鎖) (antibody, human IgM) heavy: EVQLVQSGAEVKKPGASVKVSCKASGYTFTDYNMHWVRQAPGQGLEWMGYIYPYNGGTGYNQKFKSKATLTVDNSASTAYMELSSLRSEDTAVYYCARSYYAMDYWGQGTLVTVSSGSASAPTLFPLVSCENSPSDTSSVAVGCLAQDFLPDSITFSWKYKNNSDISSTRGFPSVLRGGKYAATSQVLLPSKDVMQGTDEHVVCKVQHPNGNKEKNVPLPVIAELPPKVSVFVPPRDGFFGNPRKSKLICQATGFSPRQIQVSWLREGKQVGSGVTTDQVQAEAKESGPTTYKVTSTLTIKESDWLSQSMFTCRVDHRGLTFQQNASSMCVPDQDTAIRVFAIPPSFASIFLTKSTKLTCLVTDLTTYDSVTISWTRQNGEAVKTHTNISESHPNATFSAVGEASICEDDWNSGERFTCTVTHTDLPSPLKQTISRPKGVALHRPDVYLLPPAREQLNLRESATITCLVTGFSPADVFVQWMQRGQPLSPEKYVTSAPMPEPQAPGRYFAHSILTVSEEEWNTGETYICVVAHEALPNRVTERTVDKSTGKPTLYNVSLVMSDTAGTCY light: DVVMTQSPLSLPVTLGQPASISCRSSKSLVHSNGNTYLHWYLQKPGQSPRLLIYKVSNRFSGVPDRFSGSGSGTDFTLKISRVEAEDVGVYFCSQSTHVPPAFGQGTKVEIKRTVAAPSVFIFPPSDEQLKSGTASVVCLLNNFYPREAKVQWKVDNALQSGNSQESVTEQDSKDSTYSLSSTLTLSKADYEKHKVYACEVTHQGLSSPVTKSFNRGEC |
| 10.7 | マウス抗ヒトFas抗体CH11(MBL社) (antibody, mouse IgM) heavy: EVQLQQSGPELVKPGASVKISCKASGYTFTDYNMHWVKQSHGKSLEWIGYIYPYNGGTGYNQKFKSKATLTVDNSSSTAYMELRSLTSEDSAVYYCARSYYAMDYWGQGTSVTVSSESQSFPNVFPLVSCESPLSDKNLVAMGCLARDFLPSTISFTWNYQNNTEVIQGIRTFPTLRTGGKYLATSQVLLSPKSILEGSDEYLVCKIHYGGKNRDLHVPIPAVAEMNPNVNVFVPPRDGFSGPAPRKSKLICEATNFTPKPITVSWLKDGKLVESGFTTDPVTIENKGSTPQTYKVISTLTISEIDWLNLNVYTCRVDHRGLTFLKNVSSTCAASPSTDILTFTIPPSFADIFLSKSANLTCLVSNLATYETLNISWASQSGEPLETKIKIMESHPNGTFSAKGVASVCVEDWNNRKEFVCTVTHRDLPSPQKKFISKPNEVHKHPPAVYLLPPAREQLNLRESATVTCLVKGFSPADISVQWLQRGQLLPQEKYVTSAPMPEPGAPGFYFTHSILTVTEEEWNSGETYTCVVGHEALPHLVTERTVDKSTGKPTLYNVSLIMSDTGGTCY light: DVVMTQSPLSLPVSLGDQASISCRSSKSLVHSNGNTYLHWYLQKPGQSPKLLIYKVSNRFSGVPDRFSGSGSGTDFTLKISRVEAEDLGVYFCSQSTHVPPAFGGGTKLEIKRADAAPTVSIFPPSSEQLTSGGASVVCFLNNFYPKDINVKWKIDGSERQNGVLNSWTDQDSKDSTYSMSSTLTLTKDEYERHNSYTCEATHKTSTSPIVKSFNRNEC DDEATILADNKCMCTRVTSRIIPSTEDPNEDIVERNIRIVVPLNNRENISDPTSPLRRNFVYHLSDVCKKCDPVEVELEDQVVTATQSNICNEDDGVPETCYMYDRNKCYTTMVPLRYHGETKMVQAALTPDSCYPD |

— patent JPH10324699A (dated 1998)
